From paper PMC2757994 (The Journal of Biological Chemistry, 2009)

Molecular target: the molecule itself
Assay: SEC-MALS

B1: fibulin 5 fragment, residues 120–333 (cbEGFs 2–6) (domain or fragment, UniProt Q9UBX5 120-333, looked up)
chain: DESNQCVDVDECATDSHQCNPTQICINTEGGYTCSCTDGYWLLEGQCLDIDECRYGYCQQLCANVPGSYSCTCNPGFTLNEDGRSCQDVNECATENPCVQTCVNTYGSFICRCDPGYELEEDGVHCSDMDECSFSEFLCQHECVNQPGTYFCSCPPGYILLDDNRSCQDINECEHRNHTCNLQQTCYNLQGGFKCIDPIRCEEPYLRISDNRCM
modifications: N-glycosylated by the EBNA 293 cells (potential N-linked sites at residues 283 and 296)
  stoichiometry N: 2
